Among the data in patent publication US20220380463A1 (Adimab, published 2022) are koff values, retold here.

B1: SAD10319_P04_C12 (ADI-57341) (antibody, V domains shown)
VH: QVQLVQSGAEVKKPGASVKVSCKASGYTFTAYDMHWVRQAPGQRLERMGWIDPITGNTKYSQKFQGRVTITRDTSASTAYMELSSLRSEDTAVYYCAHDAYGHYFYDVWGQGTLVTVSS
VL: DIVMTQSPDSLAVSLGERATINCKSSQSLLNARTGKNYLAWYQQKPGQPPKLLIYWASTRESGVPDRFSGSGSGTDFTLTISSLQAEDVAVYYCKQSYSRRTFGGGTKVEIK
notes: IgG; also called Ab41
B2: SAD10319_P04_E12 (ADI-48642) (antibody, V domains shown)
VH: QVQLVQSGAEVKKPGASVKVSCKASGYTFTSYPMHWVRQAPGQRLEWMGWIDAGTGLTTYSQKFQGRVTITRDTSASTAYMELSSLRSEDTAVYYCARDHYHRYFYDMWGQGTLVTVSS
VL: DIVMTQSPDSLAVSLGERATINCKSSQSLLNARTGKNYLAWYQQKPGQPPKLLIYWASTRESGVPDRFSGSGSGTDFTLTISSLQAEDVAVYYCKQSYSRRTFGGGTKVEIK
notes: IgG; also called Ab43
B3: SAD10320_P01_C02 (ADI-57348) (antibody, V domains shown)
VH: QVQLVQSGAEVKKPGASVKVSCKASGFNIKDYYMHWVRQAPGQRLDWMGWIDLENANTIYDAKFQGRVTITRDTSASTAYMELSSLRSEDTAVYYCARDAGHRYFYDVWGQGTLVTVSS
VL: DIVMTQSPDSLAVSLGERATINCKSSQSLLNARPGKNYLAWYQQKPGQPPKLLIYWASTRESGVPDRFSGSGSGTDFTLTISSLQAEDVAVYYCGHSYSRRTFGGGTKVEIK
notes: IgG; also called Ab54
B4: SAD10320_P01_G02 (ADI-57351) (antibody, V domains shown)
VH: QVQLVQSGAEVKKPGASVKVSCKASGFNIKDYYMHWVRQAPGQRLQWMGWIDLENANTIYDAKFQGRVTITRDTSASTAYMELSSLRSEDTAVYYCARDAYGHSFYDVWGQGTLVTVSS
VL: DIVMTQSPDSLAVSLGERATINCKSSQSLLNARTGKNYLAWYQQKPGQPPKLLIYWASTRESGVPDRFSGSGSGTDFTLTISSLQAEDVAVYYCKQSYHERTFGGGTKVEIK
notes: IgG; also called Ab57
B5: SAD10320_P01_G01 (ADI-57346) (antibody, V domains shown)
VH: QVQLVQSGAEVKKPGASVKVSCKASGFNIKDYYMHWVRQAPGQRLEWMGWIDLENANTIYDAKFQGRVTITRDTSASTAYMELSSLRSEDTAVYYCARDAYGHSFYDVWGQGTLVTVSS
VL: DIVMTQSPDSLAVSLGERATINCKSSQSLLNARTGKNYLAWYQQKPGQPPKLLIYWASTRESGVPDRFSGSGSGTDFTLTISSLQAEDVAVYYCKQSYHLRTFGGGTKVEIK
notes: IgG; also called Ab51
B6: SAD10320_P01_F02 (ADI-57350) (antibody, V domains shown)
VH: QVQLVQSGAEVKKPGASVKVSCKASGFNIKDYYMHWVRQAPGQRLERMGWIDLENANTIYDAKFQGRVTITRDTSASTAYMELSSLRSEDTAVYYCARDAYGHTFYDVWGQGTLVTVSS
VL: DIVMTQSPDSLAVSLGERATINCKSSQSLLNARTGKNYLAWYQQKPGQPPKLLIYWASTRESGVPDRFSGSGSGTDFTLTISSLQAEDVAVYYCKQSYWHRTFGGGTKVEIK
notes: IgG; also called Ab56
B7: SAD10319_P04_H12 (ADI-57344) (antibody, V domains shown)
VH: QVQLVQSGAEVKKPGASVKVSCKASGYTFTSDHMHWVRQAPGQRLEWMGSINAGTGATKYSQKFQGRVTITRDTSASTAYMELSSLRSEDTAVYYCARDAYGHYFYDHWGQGTLVTVSS
VL: DIVMTQSPDSLAVSLGERATINCKSSQSLLNARTGKNYLAWYQQKPGQPPKLLIYWASTRESGVPDRFSGSGSGTDFTLTISSLQAEDVAVYYCKQSYSRRTFGGGTKVEIK
notes: IgG; also called Ab45
B8: SAD10319_P04_F12 (ADI-57343) (antibody, V domains shown)
VH: QVQLVQSGAEVKKPGASVKVSCKASGYTFNDYAMHWVRQAPGQRLDWMGWINPDTGNTNYSQKFQGRVTITRDTSASTAYMELSSLRSEDTAVYYCARDHYGRYFYDHWGQGTLVTVSS
VL: DIVMTQSPDSLAVSLGERATINCKSSQSLLNARTGKNYLAWYQQKPGQPPKLLIYWASTRESGVPDRFSGSGSGTDFTLTISSLQAEDVAVYYCKQSYSRRTFGGGTKVEIK
notes: IgG; also called Ab44
B9: SAD10320_P01_F01 (ADI-57345) (antibody, V domains shown)
VH: QVQLVQSGAEVKKPGASVKVSCKASGFNIKDYYMHWVRQAPGQRPAWMGWIDLENANTIYDAKFQGRVTITRDTSASTAYMELSSLRSEDTAVYYCARDASHRYFYDVWGQGTLVTVSS
VL: DIVMTQSPDSLAVSLGERATINCKSSQSLLNARTGKNYLAWYQQKPGQPPKLLIYWASTRESGVPDRFSGSGSGTDFTLTISSLQAEDVAVYYCGHSYSRRTFGGGTKVEIK
notes: IgG; also called Ab50
B10: SAD10320_P01_H01 (ADI-57347) (antibody, V domains shown)
VH: QVQLVQSGAEVKKPGASVKVSCKASGFNIKDYYMHWVRQAPGQRLDWMGWIDLENANTIYDAKFQGRVTITRDTSASTAYMELSSLRSEDTAVYYCARDAYGHNFYDVWGQGTLVTVSS
VL: DIVMTQSPDSLAVSLGERATINCKSSQSLLNARTGKNYLAWYQQKPGQPPKLLIYWASTRESGVPDRFSGSGSGTDFTLTISSLQAEDVAVYYCKQSYHKRTFGGGTKVEIK
notes: IgG; also called Ab52
B11: SAD10320_P01_E03 (ADI-57357) (antibody, V domains shown)
VH: QVQLVQSGAEVKKPGASVKVSCKASGFNIKDYYMHWVRQAPGQRLERMGWIDLENANTIYDAKFQGRVTITRDTSASTAYMELSSLRSEDTAVYYCARDAYGHGFYDVWGQGTLVTVSS
VL: DIVMTQSPDSLAVSLGERATINCKSSQSLLNARTGKNYLAWYQQKPGQPPKLLIYWASTRESGVPDRFSGSGSGTDFTLTISSLQAEDVAVYYCKQSYRHRTFGGGTKVEIK
notes: IgG; also called Ab64
B12: SAD10319_P04_D12 (ADI-57342) (antibody, V domains shown)
VH: QVQLVQSGAEVKKPGASVKVSCKASGYTFTSYAMHWVRQAPGQRLDWMGYINPDTGDTKYSQKFQGRVTITRDTSASTAYMELSSLRSEDTAVYYCARDAYHHYFYDVWGQGTLVTVSS
VL: DIVMTQSPDSLAVSLGERATINCKSSQSLLNARTGKNYLAWYQQKPGQPPKLLIYWASTRESGVPDRFSGSGSGTDFTLTISSLQAEDVAVYYCKQSYSRRTFGGGTKVEIK
notes: IgG; also called Ab42
B13: SAD10320_P01_C03 (ADI-57355) (antibody, V domains shown)
VH: QVQLVQSGAEVKKPGASVKVSCKASGFNIKDYYMHWVRQAPGQRLEWMGWIDLENANTIYDAKFQGRVTITRDTSASTAYMELSSLRSEDTAVYYCARDAYGHSFYDVWGQGTLVTVSS
VL: DIVMTQSPDSLAVSLGERATINCKSSQSLLNARTGKNYLAWYQQKPGQPPKLLIYWASTRESGVPDRFSGSGSGTDFTLTISSLQAEDVAVYYCKQSYHWRTFGGGTKVEIK
notes: IgG; also called Ab62
B14: SAD10320_P01_H02 (ADI-57352) (antibody, V domains shown)
VH: QVQLVQSGAEVKKPGASVKVSCKASGFNIKDYYMHWVRQAPGQRLEWMGWIDLENANTIYDAKFQGRVTITRDTSASTAYMELSSLRSEDTAVYYCARDAYGHSFYDVWGQGTLVTVSS
VL: DIVMTQSPDSLAVSLGERATINCKSSQSLLNARTGKNYLAWYQQKPGQPPKLLIYWASTRESGVPDRFSGSGSGTDFTLTISSLQAEDVAVYYCKQSMHRRTFGGGTKVEIK
B15: SAD10320_P01_D03 (ADI-57356) (antibody, V domains shown)
VH: QVQLVQSGAEVKKPGASVKVSCKASGFDIKDYYMHWVRQAPGQRLEWMGWIDLENANTIYDAKFQGRVTITRDTSASTAYMELSSLRSEDTAVYYCARDAYGHAFYDVWGQGTLVTVSS
VL: DIVMTQSPDSLAVSLGERATINCKSSQSLLNARTGKNYLAWYQQKPGQPPKLLIYWASTRESGVPDRFSGSGSGTDFTLTISSLQAEDVAVYYCKQSYHGRTFGGGTKVEIK
notes: IgG; also called Ab63

This assay concerns the target T1, Cynomolgus CD3εδ Fc heterodimer (Cy CD3ε Fc / CD3δ Fc-HIS) (cynomolgus, UniProt Q95LI8 22-100).
T1 chain 1: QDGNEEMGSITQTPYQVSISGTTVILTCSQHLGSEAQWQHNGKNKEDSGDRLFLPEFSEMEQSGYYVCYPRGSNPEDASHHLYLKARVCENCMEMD
T1 chain 2: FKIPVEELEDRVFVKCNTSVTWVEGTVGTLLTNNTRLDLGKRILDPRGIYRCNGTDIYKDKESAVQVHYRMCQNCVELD
Description: BLI (Octet), IgG on AHC sensor, pH 6.0. On the technique in general: In BLI a coated tip is dipped into the sample, and binding shifts an interference pattern.
Usually koff stands for the first-order rate constant of dissociation. A low value points to slow dissociation. Molecule B1 came in with a koff of 0.0196 s⁻¹.

As for B2, the koff turned out to be 0.00307 s⁻¹.

B3 had a koff of 0.00277 s⁻¹.

B4 displayed a koff of 0.0197 s⁻¹.

As to B5, the koff amounted to 0.0144 s⁻¹.

Take B6: the koff came to 0.0194 s⁻¹.

Consider B7, for which the koff amounted to 0.0047 s⁻¹.

Take B8: the dissociation rate constant (koff) is 0.0162 s⁻¹.

As to B9, the dissociation rate constant (koff) was 0.00642 s⁻¹.

Regarding B10, the koff was found to be 0.0207 s⁻¹.

Take B11: the koff was found to be 0.0223 s⁻¹.

Regarding B12, the koff came to 0.012 s⁻¹.

B13 yielded a koff of 0.0195 s⁻¹.

In turn, B14 had a koff of 0.00334 s⁻¹.

B15 yielded a koff of 0.00263 s⁻¹.
